Experimental data taken from the RNAGym collection of RNA variant scans (doi:10.1073/pnas.2313332121).
This sample holds only a part of the variants without activity.

B1: TPR 5TU (parent)
chain: GGAUCUUCUCGAUCUAACAAAAAAGACAAAUCUGCCACAAAGCUUGAGAGCAUCUUCGGAUGCAGAGGCGGCAGCCUUCGGUGGCGCGAUAGCGCCAACGUUCUCAACUAUGACACGCAAAACGCGUGCUCCGUUGAAUGGAGUUUAUCAUG

Variants of: B1
Test: polymerase ribozyme fitness, log enrichment relative to wild type (log ratio); higher = more active; in vitro selection for triplet polymerase activity
Procedure, shortened: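 Mutant libraries of each subunit of a heterodimeric triplet polymerase ribozyme were built by PCR and transcribed. Each library went through one round of in vitro selection in triplicate: annealing with biotinylated primer, partner subunit and triplets, frozen incubation at −7 °C, gel excision of extended constructs, streptavidin-bead capture and RT-PCR. Input and output libraries were Illumina-sequenced; only genotypes with ≥10 input reads and ≥1 read per output were kept. Fitness is log2(genotype enrichment/wild-type enrichment), using inverse-variance-weighted replicate averages.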

Row | Variant | polymerase ribozyme fitness (log ratio)
1 | U53G U77G C129A A147C | ≤ -4.2
2 | C18G C93U G143U | -3.08
3 | C75A C96U A97C | ≤ -4.2
4 | A19G G67C G124U | ≤ -4.2
5 | G84A A115U | -2.62
6 | U6A C14G C85G U90G A113U | ≤ -4.2
7 | U55G G83C U135A | -1.97
8 | A41G U78C C116G | 0.0342
9 | C18G A21G A24U A41C U53G C54G G84U G92U C93G G143C | ≤ -4.2
10 | A22C U45A | -2.58
11 | A37U G59C C149G | ≤ -4.2
12 | G84U G133C | -3.53
13 | A47G G92C C114U | -2.53
14 | A29G C76U G92A C123G G143U | ≤ -4.2
15 | U55A A115U | -1.89
16 | A52U U144G A147C | -0.409
17 | U33A G46U C75A G140C | ≤ -4.2
18 | A52G G88U | ≤ -4.2
19 | G50U U145C | -0.536
20 | C8G U13G C116G | -3.71
21 | C85A C96U G128A | -4.19
22 | A19C U45A G67A | ≤ -4.2
23 | A17U C57G | -0.677
24 | G48A C57A U144G | 0.472

Row | Variant | polymerase ribozyme fitness (log ratio)
25 | G11C C114U U139A | ≤ -4.2
26 | C18G G92U U130G | -4.01
27 | U45A G59U G74U A121G G141A | ≤ -4.2
28 | C51U A52C U82G U135G | -3.54
29 | A20C A26C G128U U144G | ≤ -4.2
30 | U31A A89C | -0.512
31 | U7A A23C G50U G59A A73C G86U C95G C108U | ≤ -4.2
32 | G71A C76G U82A G83C C131A | ≤ -4.2
33 | C35G C54A U56A C79G C99U G126U G143U | ≤ -4.2
34 | A22C A26U U56A G59C C87G U111C | ≤ -4.2
35 | G48A C75U C87A C93G | ≤ -4.2
36 | C63G G68C | ≤ -4.2
37 | U6G C85A C125G | -0.955
38 | A22C C69U C93A U144A | -3.99
39 | A49C C51G | -4.14
40 | U31G U45A A49C G84A A113G A142C | ≤ -4.2
41 | C85A C93U A119C G126U U127A | ≤ -4.2
42 | C51G G84U | -3.11
43 | A47C G81C C99A U134G | -4.06
44 | A26U G48A | -3.27
45 | C27G C51U G80C G86U | ≤ -4.2
46 | A66G C85U U111G U146A | ≤ -4.2
47 | C5U G50A C54A C76U G84U C95U C114U | ≤ -4.2
48 | C131G | -2.79

Row | Variant | polymerase ribozyme fitness (log ratio)
49 | A52C A110G A150G | -3.86
50 | A24C G67A G81C G88A | ≤ -4.2
51 | G50A U78A G83A G100A A107C | ≤ -4.2
52 | A22U A37C G83C C114G | -3.92
53 | C14A U44G | -4.1
54 | A17G C93G | -2.89
55 | G84A A150C | -3
56 | A20U C32G U56G G81A C93U A107G C131U C132G U135G A147G | ≤ -4.2
57 | C27G U33C G68U | ≤ -4.2
58 | A30G C32G U56A C57G G86U A142G | ≤ -4.2
59 | C149U | -0.847
60 | G84U C99G U148A | ≤ -4.2
61 | A21U C57A A107C A122G C123U U135C U145A | ≤ -4.2
62 | A21G G94A | -1.01
63 | A12G C14G A22C A37C G88C G143C | ≤ -4.2
64 | U7G A19U A52U U56A A91G C108A | ≤ -4.2
65 | A47C G58C A64U U104C A107G | ≤ -4.2
66 | A17U A19G C36U G42C G50A A73U A147C | ≤ -4.2
67 | C57G A98U | -0.592
68 | C54A U55A U56A C96A G141C | -4.08
69 | C10G A23C U31G C75U C87G C93A G133U G136U | ≤ -4.2
70 | G50A A60U C96U U127A | -3.79
71 | A41U U56A C93A A121U | -3.16
72 | A29C C95A G117U G126U G141C G143C | ≤ -4.2

Row | Variant | polymerase ribozyme fitness (log ratio)
73 | G58C G94C | -0.872
74 | C43A A73G G83A A89U U90C G136C G141C | ≤ -4.2
75 | A41C A47C C96U C103U A115G | -3.11
76 | A73U C93A | -3.39
77 | G59C G86C C96U A121U | -3.29
78 | C105U A120U G124A | 0.877
79 | A47G C99U | 0.0144
80 | C57U C93G | -3.36
81 | C27U C85U | -2.83
82 | A41U G50A | -2.68
83 | U146C | 0.00807
84 | U15G G84A C96A A119U | -2.08
85 | U6A A30C G58C A60U C76G A106U C149G | ≤ -4.2
86 | A21C A73U A107C A121U C149U | ≤ -4.2
87 | G42A C116G | -3.99
88 | C54U A115G | -3.13
89 | U53G G58C U82G A138C U151A | ≤ -4.2
90 | A26G A28G C87A C105G C108U C125A | ≤ -4.2
91 | C5U C51A C54G G59C G84A C116G | -3.05
92 | A21C G68C A142G | -4.13
93 | A39G U55A C96A A97U | -3.27
94 | C54U C96A C105G G124U | -3.42
95 | U56A G71U C125G | -3.78
96 | A20C A60G | -0.605

Row | Variant | polymerase ribozyme fitness (log ratio)
97 | G88C A137U G143A | ≤ -4.2
98 | G50C C87U C103G A121G C123U C125G | ≤ -4.2
99 | U9G C85A C103A C118G U134A | ≤ -4.2
100 | A3C C18U A49U G62C A66C G67U C96A C99G U134C U145C A147C U151G | ≤ -4.2
101 | A40C U146G | -0.247
102 | C8A A49G G74A G86U G141U U148G | ≤ -4.2
103 | U55G A89G G124C U146C | -1.44
104 | C5G A20U C35U G50U C93U | -3.76
105 | U56A C149U | -0.627
106 | A3U A37U C96U C118G | -3.38
107 | C93G U145G | -2.53
108 | G59C A97U U139G | -0.518
109 | U55A U56A A106C | -1.06
110 | G59C U61G G84A C95G A120C G143U | -4.18
111 | A20U A40C | -0.959
112 | G124U U135C | -2.36
113 | A16U A19G C57A | -2.39
114 | A49C U53A G86U A115G | ≤ -4.2
115 | A40C C85U G133C A142G | -3.92
116 | G59U A89U C95G | -2.27
117 | U4G U33C G84U A120U U130C C132U | ≤ -4.2
118 | A26U C93U C118U C125A | ≤ -4.2
119 | U31C G86C C93U A98U | -1.96
120 | A12U U13A A52C C87A G94U U134A A138U | ≤ -4.2

Row | Variant | polymerase ribozyme fitness (log ratio)
121 | U53A A106U | -1.9
122 | A3U C38A C87U C95U G128C | ≤ -4.2
123 | A23G A91U G140C | ≤ -4.2
124 | A28C A30G C93U C103U | -4.06
125 | G67U C87U | -3.88
126 | U7G A20U U53A G88U C96A A113U C114U A122U U139A A142U | ≤ -4.2
127 | A47G C93G U144A | -2.58
128 | A17C G92C | 0.012
129 | A3U A16U C54U U55A C85U A98C C99U C129G G152U | ≤ -4.2
130 | U9C A73U | -4.1
131 | A40C A52C G83A | -2.55
132 | C36U C87U G126A | -2.05
133 | A37C G71U G86A A106U C132G U145G | ≤ -4.2
134 | C54G A60G G81A C93G C118U | ≤ -4.2
135 | U6G A20U A41U U44A U55G G83A G88U A98U A121G U145A | ≤ -4.2
136 | C35U A49G G50A U77G C96U G143C A150G U151A | ≤ -4.2
137 | U44A U77A C95A G143A | ≤ -4.2
138 | A3G U44G C57A G59U G68C C87G | ≤ -4.2
139 | C5G G46A G88A C95G U102G U135C A147C | ≤ -4.2
140 | U53G C54U C96U A98G G133C G141U | -4.03
141 | C54G C95A | -1.74
142 | G50A C75U C76U C114G G152U | -4.02
143 | C43U C96G | ≤ -4.2
144 | A39G G83A G141C | -3.09

Row | Variant | polymerase ribozyme fitness (log ratio)
145 | U13C A49C A52U G71A A113U | ≤ -4.2
146 | C85A A150G | -2.41
147 | C8U A26U A120G C125U | ≤ -4.2
148 | A41G G42A G48C C93A A106C U109C A137C | ≤ -4.2
149 | C5U A28C A64U G84A | ≤ -4.2
150 | C85G U144G | -1.75
151 | C69A | -1.57
152 | C87G A106G | -4
153 | C10G A29C C54A U55G G88A G92U G124U | ≤ -4.2
154 | C10U U13C A37C G70A C79A G84A A107C | ≤ -4.2
155 | A28U C57U G84U G94A A98U C116A A147C | ≤ -4.2
156 | C10G C38U C87A C93G | ≤ -4.2
157 | C87U G88U | ≤ -4.2
158 | C27U A52C A60U C76U G84U C96G U109C | ≤ -4.2
159 | A49C A52U G84A C105U G124U | ≤ -4.2
160 | C76A A119U U135C C149G | ≤ -4.2
161 | C54U U77C G84A U109C | ≤ -4.2
162 | A30U U55A G74A C79U C87A C116A | ≤ -4.2
163 | A41C U53C G81C C114A A115U C123G | ≤ -4.2
164 | C38A A73G C79A C114G G124U G140U U148G | ≤ -4.2
165 | G42A G58A A64C G65U G84U | ≤ -4.2
166 | C87U C132G | -3.72
167 | A37G A52C A97C | -3.67
